Measured values as given in US20240254255A1 (Regeneron, published 2024).

How the values were obtained:
[1] = target: T1, hErbB2-MMH (human HER2 ectodomain with C-terminal myc-myc-hexahistidine tag) (human, UniProt P04626 23-652); assay: SPR (MASS-2), ADC captured on anti-human Fc, hErbB2-MMH in solution, 25 C
T1 construct: also called Her2 ECD; Her2 protein
Protocol: (§1) Equilibrium dissociation constants (KD values) for hErbB2.mmh binding to anti-HER2×HER2 antibodies conjugated with either M830 or M1 were determined using a real-time surface plasmon resonance biosensor assay on a MASS-2 instrument. The MASS-2 sensor surface was derivatized by amine coupling with a monoclonal mouse anti-human Fc antibody (REGN2567) to capture anti-HER2×HER2 ADC and parent unmodified antibodies expressed with human constant regions. […] Human hErbB2 was prepared in-house expressing a C-terminal myc-myc-hexahistidine tag (hErbB2-MMH). […] Association of hErbB2-MMH to each of the captured ADCs and monoclonal antibodies was monitored for 3 minutes. Subsequently, hErbB2-MMH dissociation was monitored for 10 minutes in HBS-EP running buffer. Anti-human Fc surface was regenerated by a brief injection of 20 mM H₃PO₄. All binding kinetic experiments were performed at 25° C.
Kinetic association (kₐ) and dissociation (Kd) rate constants were determined by fitting the real-time sensorgrams to a 1:1 binding model using Scrubber 2.0c curve fitting software. All sensorgrams were double referenced by subtracting buffer injection sensorgram signal from the corresponding analyte sensorgram, thereby removing artifacts caused by dissociation of the antibody from the capture surface. Binding dissociation equilibrium constants (KD) and dissociative half-lives (t½) were calculated from the kinetic rate constants as: […]

[2] = target: T2, human HER2 (ErbB2) expressed on the surface of cell lines and primary cells (human, UniProt P04626 23-1255); assay: cell-based or functional assay
[3] = target: T1, hErbB2-MMH (human HER2 ectodomain with …); assay: SPR (MASS-2), antibody captured on anti-human Fc, hErbB2-MMH in solution, 25 C
Protocol: as §1
Kinetic association (kₐ) and dissociation (Kd) rate constants were determined by fitting the real-time sensorgrams to a 1:1 binding model using Scrubber 2.0c curve fitting software. […] Binding dissociation equilibrium constants (KD) and dissociative half-lives (t½) were calculated from the kinetic rate constants as: […]

[4] = target: T2, human HER2 (ErbB2) expressed on the …; assay: cell-based or functional assay; remark: listed apart in the source

B1: BsAb1-MCC-Maytansinoid A (bispecific antibody, human IgG4 S228P, kappa)
heavy 1: EVQLVESGGGLAQPGGSLRLSCAASGFSISDYEIHWVRQVPGKGLEWVSGIGSAGNTYYPGAVKGRFTISRENAKNSLYLQVNSLTVGDTAVYYCARVWSPLYYFGLDVWGQGTTVTVSSASTKGPSVFPLAPCSRSTSESTAALGCLVKDYFPEPVTVSWNSGALTSGVHTFPAVLQSSGLYSLSSVVTVPSSSLGTKTYTCNVDHKPSNTKVDKRVESKYGPPCPPCPAPEFLGGPSVFLFPPKPKDTLMISRTPEVTCVVVDVSQEDPEVQFNWYVDGVEVHNAKTKPREEQFNSTYRVVSVLTVLHQDWLNGKEYKCKVSNKGLPSSIEKTISKAKGQPREPQVYTLPPSQEEMTKNQVSLTCLVKGFYPSDIAVEWESNGQPENNYKTTPPVLDSDGSFFLYSRLTVDKSRWQEGNVFSCSVMHEALHNRFTQKSLSLSPGK
heavy 2: not shown
light: not shown
modifications: SMCC-DM1 (M1) conjugate, attachment residues not stated
notes: Antibody-drug conjugate of BsAb1; also called BsAb1 conjugated with M1 (SMCC-DM1)
Antigen Bound (RU) [1]: 93.6 RU
Kd [1]: 0.512 nM
t1/2 [1]: 32.7 min
IC50 of cell killing, JIMT1 cells (Cell Titer Glow, 6 days) [2]: 7 nM
IC50 of cell killing, MDAMB361 cells (Cell Titer Glow, 6 days) [2]: 0.05 nM
IC50 of cell killing, MDAMB453 cells (Cell Titer Glow, 6 days) [2]: 0.1 nM
IC50 of cell killing, SKBR3 cells (Cell Titer Glow, 6 days) [2]: 0.02 nM
IC50 of cell killing, ZR751 cells (Cell Titer Glow, 6 days) [2]: 6 nM

B2: H4H17325D (BsAb1), HER2 x HER2 bispecific antibody (bispecific antibody, human IgG4 S228P, kappa)
heavy 1: EVQLVESGGGLAQPGGSLRLSCAASGFSISDYEIHWVRQVPGKGLEWVSGIGSAGNTYYPGAVKGRFTISRENAKNSLYLQVNSLTVGDTAVYYCARVWSPLYYFGLDVWGQGTTVTVSSASTKGPSVFPLAPCSRSTSESTAALGCLVKDYFPEPVTVSWNSGALTSGVHTFPAVLQSSGLYSLSSVVTVPSSSLGTKTYTCNVDHKPSNTKVDKRVESKYGPPCPPCPAPEFLGGPSVFLFPPKPKDTLMISRTPEVTCVVVDVSQEDPEVQFNWYVDGVEVHNAKTKPREEQFNSTYRVVSVLTVLHQDWLNGKEYKCKVSNKGLPSSIEKTISKAKGQPREPQVYTLPPSQEEMTKNQVSLTCLVKGFYPSDIAVEWESNGQPENNYKTTPPVLDSDGSFFLYSRLTVDKSRWQEGNVFSCSVMHEALHNRFTQKSLSLSPGK
heavy 2: not shown
light: not shown
notes: Human IgG4 bispecific with a common light chain; also called bispecific antibody 1
t1/2 [3]: 29 min

B3: BsAb1-CAMPT1 (Anti-HER2 BsAb1-substituted alkyl amine-(N3)2-CAMPT-1-LP) (bispecific antibody, human IgG4 S228P, kappa)
heavy 1: EVQLVESGGGLAQPGGSLRLSCAASGFSISDYEIHWVRQVPGKGLEWVSGIGSAGNTYYPGAVKGRFTISRENAKNSLYLQVNSLTVGDTAVYYCARVWSPLYYFGLDVWGQGTTVTVSSASTKGPSVFPLAPCSRSTSESTAALGCLVKDYFPEPVTVSWNSGALTSGVHTFPAVLQSSGLYSLSSVVTVPSSSLGTKTYTCNVDHKPSNTKVDKRVESKYGPPCPPCPAPEFLGGPSVFLFPPKPKDTLMISRTPEVTCVVVDVSQEDPEVQFNWYVDGVEVHNAKTKPREEQFNSTYRVVSVLTVLHQDWLNGKEYKCKVSNKGLPSSIEKTISKAKGQPREPQVYTLPPSQEEMTKNQVSLTCLVKGFYPSDIAVEWESNGQPENNYKTTPPVLDSDGSFFLYSRLTVDKSRWQEGNVFSCSVMHEALHNRFTQKSLSLSPGK
heavy 2: not shown
light: not shown
modifications: Q295 carries a bis azido-alkyl substituted amine (bisSP1) clicked to CAMPT-1-LP
notes: Antibody-drug conjugate of BsAb1; also called BsAb1-Camp1
Antigen Bound (RU) [1]: 117 RU
Kd [1]: 0.472 nM
t1/2 [1]: 41 min

B4: BsAb1-Tubulysin 1A-LP (Anti HER2 BsAb1-PEG3-N3-Tubulysin 1A-LP) (bispecific antibody, human IgG4 S228P, kappa)
heavy 1: EVQLVESGGGLAQPGGSLRLSCAASGFSISDYEIHWVRQVPGKGLEWVSGIGSAGNTYYPGAVKGRFTISRENAKNSLYLQVNSLTVGDTAVYYCARVWSPLYYFGLDVWGQGTTVTVSSASTKGPSVFPLAPCSRSTSESTAALGCLVKDYFPEPVTVSWNSGALTSGVHTFPAVLQSSGLYSLSSVVTVPSSSLGTKTYTCNVDHKPSNTKVDKRVESKYGPPCPPCPAPEFLGGPSVFLFPPKPKDTLMISRTPEVTCVVVDVSQEDPEVQFNWYVDGVEVHNAKTKPREEQFNSTYRVVSVLTVLHQDWLNGKEYKCKVSNKGLPSSIEKTISKAKGQPREPQVYTLPPSQEEMTKNQVSLTCLVKGFYPSDIAVEWESNGQPENNYKTTPPVLDSDGSFFLYSRLTVDKSRWQEGNVFSCSVMHEALHNRFTQKSLSLSPGK
heavy 2: not shown
light: not shown
modifications: deglycosylated (PNGase F); Q295 carries azido-PEG3-amine clicked to Tubulysin 1A-LP
notes: Site-specific antibody-drug conjugate of BsAb1; also called HER2xHER2-M830
IC50 of cell killing, MDAMB231 cells (Cell Titer Glow, 6 days) [4]: 40 nM
IC50 of cell killing, MDAMB468 cells (Cell Titer Glow, 6 days) [4]: 50 nM
IC50 of cell killing, T47D cells (Cell Titer Glow, 6 days) [4]: 8 nM
IC50 of cell killing, primary breast (mammary epithelial) cells (Cell Titer Glow, 6 days) [4]: 25 nM
IC50 of cell killing, primary lung epithelial cells (Cell Titer Glow, 6 days) [4]: > 67 nM
IC50 of cell killing, primary myocardial cells (Cell Titer Glow, 6 days) [4]: 9 nM
IC50 of cell killing, primary prostate epithelial cells (Cell Titer Glow, 6 days) [4]: 30 nM
Antigen Bound (RU) [1]: 114 RU
t1/2 [1]: 33.5 min
IC50 of cell killing, JIMT1 cells (Cell Titer Glow, 6 days) [2]: 0.07 nM
IC50 of cell killing, MDAMB361 cells (Cell Titer Glow, 6 days) [2]: 0.003 nM
IC50 of cell killing, MDAMB453 cells (Cell Titer Glow, 6 days) [2]: 0.02 nM
IC50 of cell killing, SKBR3 cells (Cell Titer Glow, 6 days) [2]: 0.004 nM
IC50 of cell killing, ZR751 cells (Cell Titer Glow, 6 days) [2]: 0.06 nM

B5: BsAb2-Tubulysin 1A-LP (Anti HER2 BsAb2-PEG3-N3-Tubulysin 1A-LP) (bispecific antibody, human IgG4 S228P, kappa)
heavy 1: QVQLVESGGGVVQPGRSLRLSCEASGFTFSGYALHWVRQAPGKGLEWVTVISYDGSDKFYADSVKGRFTISRDNSKNTLYLQMNSLRTEDTALYYCAKDWGTYHWNYGHYNYVMDVWGQGTTVTVSSASTKGPSVFPLAPCSRSTSESTAALGCLVKDYFPEPVTVSWNSGALTSGVHTFPAVLQSSGLYSLSSVVTVPSSSLGTKTYTCNVDHKPSNTKVDKRVESKYGPPCPPCPAPEFLGGPSVFLFPPKPKDTLMISRTPEVTCVVVDVSQEDPEVQFNWYVDGVEVHNAKTKPREEQFNSTYRVVSVLTVLHQDWLNGKEYKCKVSNKGLPSSIEKTISKAKGQPREPQVYTLPPSQEEMTKNQVSLTCLVKGFYPSDIAVEWESNGQPENNYKTTPPVLDSDGSFFLYSRLTVDKSRWQEGNVFSCSVMHEALHNRFTQKSLSLSPGK
heavy 2: not shown
light: not shown
modifications: deglycosylated (PNGase F); Q295 carries azido-PEG3-amine clicked to Tubulysin 1A-LP
notes: Site-specific antibody-drug conjugate of BsAb2; also called H4H17087D-Tubulysin 1A-LP
IC50 of cell killing, MDAMB231 cells (Cell Titer Glow, 6 days) [4]: 50 nM
IC50 of cell killing, MDAMB468 cells (Cell Titer Glow, 6 days) [4]: 67 nM
IC50 of cell killing, T47D cells (Cell Titer Glow, 6 days) [4]: 8 nM
IC50 of cell killing, primary breast (mammary epithelial) cells (Cell Titer Glow, 6 days) [4]: 20 nM
IC50 of cell killing, primary lung epithelial cells (Cell Titer Glow, 6 days) [4]: > 67 nM
IC50 of cell killing, primary myocardial cells (Cell Titer Glow, 6 days) [4]: 30 nM
IC50 of cell killing, primary prostate epithelial cells (Cell Titer Glow, 6 days) [4]: > 67 nM
Antigen Bound (RU) [1]: 72.7 RU
Kd [1]: ≤ 0.0431 nM
koff [1]: ≤ 1e-05 s⁻¹
kon [1]: 232000 M⁻¹ s⁻¹
t1/2 [1]: ≥ 1160 min

B6: BsAb2-CAMPT1 (bispecific antibody, human IgG4 S228P, kappa)
heavy 1: QVQLVESGGGVVQPGRSLRLSCEASGFTFSGYALHWVRQAPGKGLEWVTVISYDGSDKFYADSVKGRFTISRDNSKNTLYLQMNSLRTEDTALYYCAKDWGTYHWNYGHYNYVMDVWGQGTTVTVSSASTKGPSVFPLAPCSRSTSESTAALGCLVKDYFPEPVTVSWNSGALTSGVHTFPAVLQSSGLYSLSSVVTVPSSSLGTKTYTCNVDHKPSNTKVDKRVESKYGPPCPPCPAPEFLGGPSVFLFPPKPKDTLMISRTPEVTCVVVDVSQEDPEVQFNWYVDGVEVHNAKTKPREEQFNSTYRVVSVLTVLHQDWLNGKEYKCKVSNKGLPSSIEKTISKAKGQPREPQVYTLPPSQEEMTKNQVSLTCLVKGFYPSDIAVEWESNGQPENNYKTTPPVLDSDGSFFLYSRLTVDKSRWQEGNVFSCSVMHEALHNRFTQKSLSLSPGK
heavy 2: not shown
light: not shown
modifications: Q295 carries a bis azido-alkyl substituted amine (bisSP1) clicked to CAMPT-1-LP
notes: Antibody-drug conjugate of BsAb2; also called BsAb2-Camp1
Antigen Bound (RU) [1]: 77 RU
Kd [1]: ≤ 0.0388 nM
koff [1]: ≤ 1e-05 s⁻¹
kon [1]: 258000 M⁻¹ s⁻¹
t1/2 [1]: 1160 min

B7: BsAb2-MCC-Maytansinoid A (bispecific antibody, human IgG4 S228P, kappa)
heavy 1: QVQLVESGGGVVQPGRSLRLSCEASGFTFSGYALHWVRQAPGKGLEWVTVISYDGSDKFYADSVKGRFTISRDNSKNTLYLQMNSLRTEDTALYYCAKDWGTYHWNYGHYNYVMDVWGQGTTVTVSSASTKGPSVFPLAPCSRSTSESTAALGCLVKDYFPEPVTVSWNSGALTSGVHTFPAVLQSSGLYSLSSVVTVPSSSLGTKTYTCNVDHKPSNTKVDKRVESKYGPPCPPCPAPEFLGGPSVFLFPPKPKDTLMISRTPEVTCVVVDVSQEDPEVQFNWYVDGVEVHNAKTKPREEQFNSTYRVVSVLTVLHQDWLNGKEYKCKVSNKGLPSSIEKTISKAKGQPREPQVYTLPPSQEEMTKNQVSLTCLVKGFYPSDIAVEWESNGQPENNYKTTPPVLDSDGSFFLYSRLTVDKSRWQEGNVFSCSVMHEALHNRFTQKSLSLSPGK
heavy 2: not shown
light: not shown
modifications: SMCC-DM1 (M1) conjugate, attachment residues not stated
notes: Antibody-drug conjugate of BsAb2; also called BsAb2 conjugated with M1 (SMCC-DM1)
Antigen Bound (RU) [1]: 82.8 RU
Kd [1]: 0.0469 nM
koff [1]: 1.02e-05 s⁻¹
kon [1]: 218000 M⁻¹ s⁻¹
t1/2 [1]: 1130 min
